Data taken from the supplement of paper PMC9112550, “Optimization of the antimicrobial peptide Bac7 by deep mutational scanning” (BMC Biology, 2022).

Test system: Escherichia coli TOP10
Assay: shrunken log2 fold change of peptide-encoding DNA abundance (4.5 h post-induction vs induction); higher = less antimicrobial activity (less host growth inhibition)
Details: time post-induction: 4.5 h; library: site-saturation at positions 5, 18, 19, 20
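Note: peptides expressed intracellularly from a pBAD plasmid library in pooled LB shake-flask culture, induced with 0.3% L-arabinose, DNA abundance read by NGS, three biological replicates, DESeq2 with apeglm shrinkage.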

RRIRGRPPRLPRPRPRPFGDPRP
shrunken log2 fold change: 0.0154

RRIRARPPRLPRPRPRPEHAPRP
shrunken log2 fold change: 0.564

RRIRERPPRLPRPRPRPDFDPRP
shrunken log2 fold change: -0.356

RRIRDRPPRLPRPRPRPHYMPRP
shrunken log2 fold change: -0.231

RRIRSRPPRLPRPRPRPGVKPRP
shrunken log2 fold change: 0.235

RRIRCRPPRLPRPRPRPYYIPRP
shrunken log2 fold change: -0.564

RRIRGRPPRLPRPRPRPDWLPRP
shrunken log2 fold change: 0.963

RRIRDRPPRLPRPRPRPLCAPRP
shrunken log2 fold change: 0.783

RRIRIRPPRLPRPRPRPGNPPRP
shrunken log2 fold change: -0.366

RRIRHRPPRLPRPRPRPVFTPRP
shrunken log2 fold change: -0.392

RRIRHRPPRLPRPRPRPRNEPRP
shrunken log2 fold change: -0.588

RRIRRRPPRLPRPRPRPSRVPRP
shrunken log2 fold change: 0.553

RRIRIRPPRLPRPRPRPLCNPRP
shrunken log2 fold change: -0.807

RRIRIRPPRLPRPRPRPDVEPRP
shrunken log2 fold change: -0.054

RRIRIRPPRLPRPRPRPEPLPRP
shrunken log2 fold change: 0.0641

RRIRSRPPRLPRPRPRPKITPRP
shrunken log2 fold change: -0.325

RRIRWRPPRLPRPRPRPDNFPRP
shrunken log2 fold change: -0.0334

RRIRFRPPRLPRPRPRPAEKPRP
shrunken log2 fold change: -0.0885

RRIRIRPPRLPRPRPRPFSMPRP
shrunken log2 fold change: -0.0858

RRIRPRPPRLPRPRPRPLPLPRP
shrunken log2 fold change: -0.128

RRIRRRPPRLPRPRPRPCEFPRP
shrunken log2 fold change: -0.109

RRIRCRPPRLPRPRPRPLNIPRP
shrunken log2 fold change: -0.379

RRIRLRPPRLPRPRPRPRGFPRP
shrunken log2 fold change: 0.124

RRIRNRPPRLPRPRPRPKDMPRP
shrunken log2 fold change: -0.0164

RRIRSRPPRLPRPRPRPIITPRP
shrunken log2 fold change: -0.507

RRIRYRPPRLPRPRPRPPEHPRP
shrunken log2 fold change: -0.0551

RRIRERPPRLPRPRPRPFYYPRP
shrunken log2 fold change: -0.618

RRIRERPPRLPRPRPRPTMNPRP
shrunken log2 fold change: -0.19

RRIRIRPPRLPRPRPRPHLPPRP
shrunken log2 fold change: -0.0411

RRIRARPPRLPRPRPRPYIRPRP
shrunken log2 fold change: -0.406

RRIRNRPPRLPRPRPRPHWRPRP
shrunken log2 fold change: 0.201

RRIRFRPPRLPRPRPRPGDLPRP
shrunken log2 fold change: -0.23

RRIRTRPPRLPRPRPRPRQHPRP
shrunken log2 fold change: -0.374

RRIRPRPPRLPRPRPRPVGDPRP
shrunken log2 fold change: 0.365

RRIRRRPPRLPRPRPRPFVEPRP
shrunken log2 fold change: -0.142

RRIRCRPPRLPRPRPRPAVSPRP
shrunken log2 fold change: -0.345

RRIRVRPPRLPRPRPRPQLTPRP
shrunken log2 fold change: -0.0141

RRIRKRPPRLPRPRPRPEIVPRP
shrunken log2 fold change: 1.08

RRIRCRPPRLPRPRPRPYRVPRP
shrunken log2 fold change: 1.99

RRIRDRPPRLPRPRPRPVRMPRP
shrunken log2 fold change: 0.059

RRIRHRPPRLPRPRPRPPFFPRP
shrunken log2 fold change: 0.168

RRIRQRPPRLPRPRPRPRGNPRP
shrunken log2 fold change: 0.106

RRIRWRPPRLPRPRPRPAQEPRP
shrunken log2 fold change: 0.149

RRIRDRPPRLPRPRPRPCRMPRP
shrunken log2 fold change: 0.0112

RRIRFRPPRLPRPRPRPTICPRP
shrunken log2 fold change: -0.288

RRIRARPPRLPRPRPRPQWNPRP
shrunken log2 fold change: -0.00397

RRIRIRPPRLPRPRPRPPRNPRP
shrunken log2 fold change: 0.217

RRIRFRPPRLPRPRPRPVIVPRP
shrunken log2 fold change: -0.997

RRIRHRPPRLPRPRPRPLSWPRP
shrunken log2 fold change: 0.146

RRIRGRPPRLPRPRPRPYAIPRP
shrunken log2 fold change: -0.0622

RRIRTRPPRLPRPRPRPLEIPRP
shrunken log2 fold change: 0.554

RRIRFRPPRLPRPRPRPSPPPRP
shrunken log2 fold change: 0.218

RRIRVRPPRLPRPRPRPPMFPRP
shrunken log2 fold change: -0.161

RRIRTRPPRLPRPRPRPNPHPRP
shrunken log2 fold change: -0.177

RRIRYRPPRLPRPRPRPENHPRP
shrunken log2 fold change: -0.552

RRIRMRPPRLPRPRPRPGWCPRP
shrunken log2 fold change: 0.181

RRIRPRPPRLPRPRPRPPWQPRP
shrunken log2 fold change: 0.443

RRIRTRPPRLPRPRPRPGFYPRP
shrunken log2 fold change: -0.159

RRIRDRPPRLPRPRPRPQIHPRP
shrunken log2 fold change: -0.145

RRIRMRPPRLPRPRPRPYDKPRP
shrunken log2 fold change: -0.351

RRIRIRPPRLPRPRPRPYAMPRP
shrunken log2 fold change: -0.411

RRIRQRPPRLPRPRPRPRLPPRP
shrunken log2 fold change: 0.467

RRIRWRPPRLPRPRPRPCVHPRP
shrunken log2 fold change: 0.0249

RRIRARPPRLPRPRPRPPQNPRP
shrunken log2 fold change: 1.05

RRIRVRPPRLPRPRPRPTDRPRP
shrunken log2 fold change: -0.00137

RRIRLRPPRLPRPRPRPHYNPRP
shrunken log2 fold change: -0.779

RRIRRRPPRLPRPRPRPMDHPRP
shrunken log2 fold change: -0.0417

RRIRERPPRLPRPRPRPWTMPRP
shrunken log2 fold change: 0.0606

RRIRYRPPRLPRPRPRPLEQPRP
shrunken log2 fold change: -0.121

RRIRRRPPRLPRPRPRPGTHPRP
shrunken log2 fold change: 0.243

RRIRCRPPRLPRPRPRPREHPRP
shrunken log2 fold change: 0.161

RRIRRRPPRLPRPRPRPRWMPRP
shrunken log2 fold change: 0.25

RRIRQRPPRLPRPRPRPYRVPRP
shrunken log2 fold change: -0.00926

RRIRYRPPRLPRPRPRPPEGPRP
shrunken log2 fold change: -0.455

RRIRARPPRLPRPRPRPRPCPRP
shrunken log2 fold change: 0.426

RRIRLRPPRLPRPRPRPYNPPRP
shrunken log2 fold change: -0.454

RRIRIRPPRLPRPRPRPGQNPRP
shrunken log2 fold change: -0.0607

RRIRSRPPRLPRPRPRPIEIPRP
shrunken log2 fold change: -0.00473

RRIRRRPPRLPRPRPRPCNGPRP
shrunken log2 fold change: -0.199

RRIRMRPPRLPRPRPRPSNDPRP
shrunken log2 fold change: 0.184

RRIRKRPPRLPRPRPRPMTAPRP
shrunken log2 fold change: 0.832

RRIRYRPPRLPRPRPRPNPCPRP
shrunken log2 fold change: -0.0242

RRIRVRPPRLPRPRPRPEGPPRP
shrunken log2 fold change: 0.239

RRIRMRPPRLPRPRPRPYIKPRP
shrunken log2 fold change: -0.86

RRIRSRPPRLPRPRPRPFKDPRP
shrunken log2 fold change: -0.11

RRIRFRPPRLPRPRPRPRYNPRP
shrunken log2 fold change: -0.323

RRIRPRPPRLPRPRPRPLIVPRP
shrunken log2 fold change: -0.406

RRIRARPPRLPRPRPRPEMQPRP
shrunken log2 fold change: 1.66

RRIRNRPPRLPRPRPRPCCMPRP
shrunken log2 fold change: -0.0549

RRIRKRPPRLPRPRPRPAYCPRP
shrunken log2 fold change: 0.0801

RRIRARPPRLPRPRPRPAEIPRP
shrunken log2 fold change: 0.233

RRIRFRPPRLPRPRPRPSNRPRP
shrunken log2 fold change: -0.381

RRIRVRPPRLPRPRPRPGHGPRP
shrunken log2 fold change: 0.00601

RRIRMRPPRLPRPRPRPIMTPRP
shrunken log2 fold change: -0.104

RRIRHRPPRLPRPRPRPKTQPRP
shrunken log2 fold change: -0.15

RRIRPRPPRLPRPRPRPAITPRP
shrunken log2 fold change: -0.361

RRIRVRPPRLPRPRPRPALPPRP
shrunken log2 fold change: 0.329

RRIRCRPPRLPRPRPRPGRSPRP
shrunken log2 fold change: 0.0654

RRIRRRPPRLPRPRPRPHMNPRP
shrunken log2 fold change: -0.315

RRIRERPPRLPRPRPRPKKNPRP
shrunken log2 fold change: -0.0468

RRIRIRPPRLPRPRPRPAAFPRP
shrunken log2 fold change: -0.234

RRIRYRPPRLPRPRPRPDPLPRP
shrunken log2 fold change: -0.0227

RRIRPRPPRLPRPRPRPDSRPRP
shrunken log2 fold change: 0.0317

RRIRLRPPRLPRPRPRPNTSPRP
shrunken log2 fold change: -0.333

RRIRPRPPRLPRPRPRPHDHPRP
shrunken log2 fold change: 0.0287

RRIRWRPPRLPRPRPRPFEVPRP
shrunken log2 fold change: 0.0389

RRIRVRPPRLPRPRPRPSLFPRP
shrunken log2 fold change: -0.269

RRIRNRPPRLPRPRPRPGKWPRP
shrunken log2 fold change: -0.0427

RRIRTRPPRLPRPRPRPVVAPRP
shrunken log2 fold change: 0.418
